# Test results reported in patent US20100144645A1, “COMPOSITIONS AND METHODS FOR ENHANCING […] POTENCY OF […]-COMPOUNDS, A[…] ADVERSE SIDE EFFECTS, AND […] ABUSE” (SHIRE LLC, priority 2006, published 2010).
# Residues, ends and D or L forms follow the SMILES beside them. *: point of attachment. X1 = COc1ccc2c3c1OC1C(O*)=CCC4[C@@H](C2)N(C)CC[C@]314
# How the values were obtained:
# [1] = Intranasal bioavailability of hydrocodone conjugates; settings: rats, relative to hydrocodone
# [2] = stability 90 C., 20 min (V, BP, TW, BS) of hydrocodone conjugates; settings: for stability 90 C., 20 min BP: BP (abbreviation not defined); for stability 90 C., 20 min BS: BS (abbreviation not defined); for stability 90 C., 20 min TW: TW (abbreviation not defined); for stability 90 C., 20 min V: V (abbreviation not defined)
# [3] = Oral bioavailability of hydrocodone conjugates (plasma hydrocodone plus hydromorphone); settings: for bioavailabiltty (% HC) oral AUC / bioavailabiltty (% HC) oral Cmax: rats, relative to hydrocodone; for Oral:IN Index AUC: ratio of oral to IN AUC (% HC); for Oral:IN Index Cmax: ratio of oral to IN Cmax (% HC)
Structure (SMILES),bioavailabiltty (% HC) IN AUC [1] [% HC],bioavailabiltty (% HC) IN Cmax [1] [% HC],"stability 90 C., 20 min BP [2]","stability 90 C., 20 min BS [2]","stability 90 C., 20 min TW [2]","stability 90 C., 20 min V [2]",bioavailabiltty (% HC) oral AUC [3] [% HC],bioavailabiltty (% HC) oral Cmax [3] [% HC],Oral:IN Index AUC [3],Oral:IN Index Cmax [3]
CC[C@H](C)[C@H](NC(=O)[C@H](CC(=O)O)NC(=O)[C@H](CC(=O)O)NC(=O)[C@H](CCC(=O)O)NC(=O)[C@@H](N)CCC(=O)O)C(=O)OC1=CCC2[C@H]3Cc4ccc(OC)c5c4[C@@]2(CCN3C)C1O5 (some centres unmarked) [Glu2-Asp2-Ile-HC] (H-EEDDI-X1),53,81,77,100,15,1,108,129,2.04,1.59
"CC[C@H](C)[C@H](NC(=O)CNC(=O)CNC(=O)[C@H](CCC(=O)O)NC(=O)[C@@H](N)CCC(=O)O)C(=O)OC1=CCC2[C@H]3Cc4ccc(OC)c5c4[C@@]2(CCN3C)C1O5 (some centres unmarked) [Glu2-Gly2-Ile-HC, Glu2-Gly2-Ile-Hydrocodone] (H-EEGGI-X1)",50,56,99,99,23,0,81,77,,
COc1ccc2c3c1OC1C(OC(=O)[C@H](Cc4ccccc4)NC(=O)CNC(=O)CNC(=O)[C@H](CCC(=O)O)NC(=O)[C@@H](N)CCC(=O)O)=CCC4[C@@H](C2)N(C)CC[C@]314 (some centres unmarked) [Glu2-Gly2-Phe-HC] (H-EEGGF-X1),89,97,100,100,100,0,110,112,1.24,1.15
CC[C@H](C)[C@H](NC(=O)[C@H](Cc1ccccc1)NC(=O)[C@H](Cc1ccccc1)NC(=O)[C@H](CCC(=O)O)NC(=O)[C@@H](N)CCC(=O)O)C(=O)OC1=CCC2[C@H]3Cc4ccc(OC)c5c4[C@@]2(CCN3C)C1O5 (some centres unmarked) [Glu2-Phe2-Ile-HC] (H-EEFFI-X1),68,76,100,100,33,0,96,129,1.41,1.70
"COc1ccc2c3c1OC1C(OC(=O)[C@H](Cc4ccccc4)NC(=O)[C@H](Cc4ccccc4)NC(=O)[C@H](Cc4ccccc4)NC(=O)[C@H](CCC(=O)O)NC(=O)[C@@H](N)CCC(=O)O)=CCC4[C@@H](C2)N(C)CC[C@]314 (some centres unmarked) [Glu2-Phe3-HC, Glu2-Phe3-Hydrocodone] (H-EEFFF-X1)",27,47,100,84,57,3,83,89,3.07,1.89
CC[C@H](C)[C@H](NC(=O)[C@H](CCC(=O)O)NC(=O)[C@@H](N)CCC(=O)O)C(=O)OC1=CCC2[C@H]3Cc4ccc(OC)c5c4[C@@]2(CCN3C)C1O5 (stereo partly drawn) [Glu-Glu-Ile-HC],52,59,94,100,26,0,83,112,1.60,1.90
CC[C@H](C)[C@H](NC(=O)[C@H](CCC(=O)O)NC(=O)[C@H](CCC(=O)O)NC(=O)CNC(=O)CN)C(=O)OC1=CCC2[C@H]3Cc4ccc(OC)c5c4[C@@]2(CCN3C)C1O5 (some centres unmarked) [Gly2-Glu2-Ile-HC] (H-GGEEI-X1),66,77,74,100,11,0,96,119,1.45,1.55
CC[C@H](C)[C@H](NC(=O)[C@@H]1CCCN1C(=O)[C@@H]1CCCN1C(=O)CNC(=O)CN)C(=O)OC1=CCC2[C@H]3Cc4ccc(OC)c5c4[C@@]2(CCN3C)C1O5 (some centres unmarked) [Gly2-Pro2-Ile-HC] (H-GGPPI-X1),44,56,73,100,70,0,94,121,2.14,2.16
COc1ccc2c3c1OC1C(OC(=O)[C@H](Cc4ccccc4)NC(=O)[C@@H]4CCCN4C(=O)[C@@H](N)CC(C)C)=CCC4[C@@H](C2)N(C)CC[C@]314 (stereo partly drawn) [Leu-Pro-Phe-HC],83,101,100,100,100,2,106,125,1.28,1.24
CC[C@H](C)[C@H](NC(=O)[C@H](CC(=O)O)NC(=O)[C@H](CC(=O)O)NC(=O)[C@H](CCCCN)NC(=O)[C@@H](N)CCCCN)C(=O)OC1=CCC2[C@H]3Cc4ccc(OC)c5c4[C@@]2(CCN3C)C1O5 (some centres unmarked) [Lys2-Asp2-Ile-HC] (H-KKDDI-X1),39,56,64,100,0,0,90,121,2.31,2.16
CC[C@H](C)[C@H](NC(=O)[C@@H]1CCCN1C(=O)[C@@H]1CCCN1C(=O)[C@H](CCCCN)NC(=O)[C@@H](N)CCCCN)C(=O)OC1=CCC2[C@H]3Cc4ccc(OC)c5c4[C@@]2(CCN3C)C1O5 (some centres unmarked) [Lys2-Pro2-Ile-HC] (H-KKPPI-X1),68,94,72,100,66,0,80,76,1.18,0.81
CC[C@H](C)[C@H](NC(=O)[C@H](CCCCN)NC(=O)[C@@H](N)CCCCN)C(=O)OC1=CCC2[C@H]3Cc4ccc(OC)c5c4[C@@]2(CCN3C)C1O5 (stereo partly drawn) [Lys-Lys-Ile-HC],68,94,100,97,96,0,80,76,1.18,0.81
CC[C@H](C)[C@H](NC(=O)[C@@H]1CCCN1)C(=O)N[C@H](C(=O)OC1=CCC2[C@H]3Cc4ccc(OC)c5c4[C@@]2(CCN3C)C1O5)[C@@H](C)CC (stereo partly drawn) [Pro-Ile-Ile-HC],86,102,47,100,83,0,104,99,1.21,0.97
